{"source": "patent US20070009442A1", "about": "“Macrocyclic metal complexes and their use for the production of conjugates with biomolecules” (priority 2001, published 2007)", "key": {"[1]": {"experiment": "Relaxivity of the conjugates in aqueous solution", "type": "physicochemical", "settings": "+37° C., 20 MHz, relaxivity per mol of gadolinium calculated from the measured values", "description": "(§1) As comparison substances, Gd-DTPA (1) with the formula: [drawing 16] and Gd-GlyMeDOTA (2) with the formula: [drawing 17] which were reacted in each case with bovine serum albumin (BSA), were used.\n(§2) The measurements were made in each case in aqueous solution and in plasma at +37° C. and a frequency of 20 MHz. The results are summarized in Table 2 below, whereby the indicated relaxivities per mol of gadolinium were calculated from the measured values: […]"}, "[2]": {"experiment": "Relaxivity of the conjugates in plasma", "type": "physicochemical", "settings": "+37° C., 20 MHz, relaxivity per mol of gadolinium calculated from the measured values", "description": "as §1, §2"}}}
{"substance": "Gd-GlyMeDOTA [Vergleichssubstanz 2]", "values": [{"measurement": "R1 (H2O)", "setting": "[1]", "value": 18.3, "unit": "L/mmol/s"}, {"measurement": "R1 (Plasma)", "setting": "[2]", "value": 20.8, "unit": "L/mmol/s"}]}
